Data: US20250243263A1
pKd: −log10 of the molar value.

Experiments:
[1] = molecular target: Tau204-222 phospho-peptide (pS214) (human); assay: one point ELISA
[2] = molecular target: Tau191-214 phospho-peptide (pS202) (human); assay: one point ELISA
[3] = molecular target: pS199-old (SCBio-4PEG-Peptide, Tau191-214) (human); assay: one point ELISA
[4] = molecular target: Tau191-214 phospho-peptide (pS199/pT205) (human); assay: one point ELISA
[5] = molecular target: Tau204-222 phospho-peptide (pT212/pS214/pT217) (human); assay: one point ELISA
[6] = molecular target: Tau191-214 phospho-peptide (pS199/pS202) (human); assay: one point ELISA
Tau191-214 phospho-peptide (pS199/pS202) (human), sequence (peptide, as listed by the source): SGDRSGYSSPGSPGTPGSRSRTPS

[7] = molecular target: Tau204-222 phospho-peptide (pT212/pT217) (human); assay: one point ELISA
[8] = molecular target: Tau204-222 phospho-peptide (pT212) (human); assay: one point ELISA
[9] = molecular target: Tau204-222 phospho-peptide (pT212/pS214) (human); assay: one point ELISA
[10] = molecular target: Tau204-222 phospho-peptide (pS214/pT217) (human); assay: one point ELISA
[11] = molecular target: tPeptide 5 (204-222) (human); assay: one point ELISA
[12] = molecular target: Tau204-222 phospho-peptide (pT217) (human); assay: one point ELISA
[13] = molecular target: Tau191-214 phospho-peptide (pT205) (human); assay: one point ELISA
[14] = molecular target: Tau191-214 phospho-peptide (pS199) (human); assay: one point ELISA
[15] = molecular target: Tau191-214 phospho-peptide (pS199/pS202/pT205) (human); assay: one point ELISA
[16] = molecular target: Tau191-214 phospho-peptide (pS202/pT205) (human); assay: one point ELISA
[17] = molecular target: Tau217-234 phospho-peptide (pT217/pT220/pT231) (human); assay: BLI
[18] = molecular target: Tau225-240 phospho-peptide (pT231) (human); assay: BLI
[19] = molecular target: AT8 peptide (amino acids 195-215 of tau) (human); assay: BLI (Octet), phospho-peptide on streptavidin tips
AT8 peptide (amino acids 195-215 of tau) (human), sequence (peptide, as listed by the source): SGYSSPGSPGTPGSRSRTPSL

Substance	OD (450 nm) [1] [OD450]	OD (450 nm) [2] [OD450]	OD (450 nm) [3] [OD450]	OD (450 nm) [4] [OD450]	OD (450 nm) [5] [OD450]	OD (450 nm) [6] [OD450]	OD (450 nm) [7] [OD450]	OD (450 nm) [8] [OD450]	OD (450 nm) [9] [OD450]	OD (450 nm) [10] [OD450]	OD (450 nm) [11] [OD450]	OD (450 nm) [12] [OD450]	OD (450 nm) [13] [OD450]	OD (450 nm) [14] [OD450]	OD (450 nm) [15] [OD450]	OD (450 nm) [16] [OD450]	pKd [17]	pKd [18]	pKd [19]
hIgG1 isotype control (antibody)	0.061	0.055	0.06	0.09	0.053	0.062	0.057	0.06	0.059	0.059	0.141	0.083	0.054	0.058	0.245	0.249			
PT3-hIgG1 (antibody)	3.14				3.17		3.16	3.16	3.14	3.13	2.81	3.13							
anti-tau antibody AT100 (ThermoFisher, Waltham, MA)	0.065				0.187		0.069	0.069	0.071	0.067		0.068							
IPN002-hIgG1 (antibody)											0.281								
AT180 (antibody)																	11.30	11.22	
anti-tau antibody AT8 (ThermoFisher, Waltham, MA)		0.058	0.056	0.139		2.39							0.065	0.056	3.07	2.94			9.51
